T1: human IL-5 with his-tag (rhIL-5-his) (human, UniProt P05113 20-134)
T1 construct: It was expressed in HEK293 and purified from the supernatant; also called HuIL-5; recombinant human IL-5
T1 sequence: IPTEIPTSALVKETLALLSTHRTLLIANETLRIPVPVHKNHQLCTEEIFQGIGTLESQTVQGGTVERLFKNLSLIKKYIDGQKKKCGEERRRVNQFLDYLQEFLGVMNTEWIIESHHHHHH

T2: cyno IL-5 with his-tag (cyno (paragraph 156 says rhesus), UniProt P48093 20-134 (rhesus entry))
T2 construct: also called rhesus IL-5 with His-tag; monkey IL-5
T2 sequence: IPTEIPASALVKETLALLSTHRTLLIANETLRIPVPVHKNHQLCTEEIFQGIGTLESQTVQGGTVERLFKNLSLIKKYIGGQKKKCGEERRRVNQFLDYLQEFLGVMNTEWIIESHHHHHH

T3: IL4 (R&D, 204-IL-050/CF) (UniProt P05112 25-153)
T3 sequence (looked up): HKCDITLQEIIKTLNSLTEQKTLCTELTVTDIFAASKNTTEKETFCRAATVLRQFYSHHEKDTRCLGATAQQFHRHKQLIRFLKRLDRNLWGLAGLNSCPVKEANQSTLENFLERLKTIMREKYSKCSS

T4: IFNgamma (UniProt P01579 24-166, limits assumed)
T4 sequence (looked up): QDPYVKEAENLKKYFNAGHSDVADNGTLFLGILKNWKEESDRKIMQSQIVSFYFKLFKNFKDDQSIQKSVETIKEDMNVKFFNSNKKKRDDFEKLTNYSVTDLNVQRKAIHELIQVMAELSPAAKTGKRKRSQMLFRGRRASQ

T5: IL25 (R&D, 8134-IL-025/CF) (UniProt Q9H293 33-177)
T5 sequence (looked up): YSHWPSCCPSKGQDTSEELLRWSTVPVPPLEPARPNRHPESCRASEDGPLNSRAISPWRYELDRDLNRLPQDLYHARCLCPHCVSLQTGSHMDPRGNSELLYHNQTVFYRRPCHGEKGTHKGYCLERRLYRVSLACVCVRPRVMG

T6: IL31 (R&D, 2824-IL-010/CF) (UniProt Q6EBC2 24-164)
T6 sequence (looked up): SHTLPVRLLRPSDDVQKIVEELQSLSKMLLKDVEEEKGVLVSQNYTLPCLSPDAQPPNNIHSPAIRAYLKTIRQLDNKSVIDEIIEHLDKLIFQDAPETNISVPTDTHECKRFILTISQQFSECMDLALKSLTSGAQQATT

T7: IL3 (203-IL-050/CF) (UniProt P08700 20-152)
T7 sequence (looked up): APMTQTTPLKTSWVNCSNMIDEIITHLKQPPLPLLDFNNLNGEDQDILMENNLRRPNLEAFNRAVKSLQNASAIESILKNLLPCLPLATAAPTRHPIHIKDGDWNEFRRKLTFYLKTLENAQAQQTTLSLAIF


Tests used:
[1] = biological target: T1, human IL-5 with his-tag (rhIL-5-his); test: Biacore
Experimental: (§1) The affinity of the murine IL-5 antibody to be tested with human IL-5 was measured by Biacore T200 (GE) instrument.
(§2) The protein A biosensor chip was used to affinity capture of the molecules to be tested, and then the antigen (recombinant human and cyno IL-5 prepared in Example 1) flowed through the surface of the chip, and the reaction signal was detected in real time with the Biacore T200 instrument to obtain the binding and dissociation curves. After the dissociation of each experimental cycle was completed, the biosensor chip was washed and regenerated with glycine-hydrochloric acid regeneration solution (pH 1.5). BIA evaluation version 4.1 GE software was used to fit the data against (1:1) Langmuir model, and the affinity value was obtained and shown in Table 13.

[2] = biological target: T1, human IL-5 with his-tag (rhIL-5-his); test: Biacore T200, antibody captured on protein A chip, antigen in flow, 1:1 Langmuir
Experimental: as §1, §2

[3] = biological target: T2, cyno IL-5 with his-tag; test: as above
Experimental: as §1, §2

[4] = biological target: T1, human IL-5 with his-tag (rhIL-5-his); test: competition ELISA: IL-5 coated, biotin-IL-5Rα (10 µg/ml) as competitor, antibody diluted
Experimental: To identify the ability of IL-5 antibody to block IL-5 from binding to the extracellular region of recombinantly expressed IL-5α receptor protein, IL-5 (5 μg/ml in PBS) was coated on an ELISA plate and incubated at 37° C. for 1 hour; the liquid was removed, 200 μl/well of 5% skimmed milk blocking solution diluted with PBS was added, and incubated for 2.5 hours in a 37° C. incubator for blocking. After blocking, the blocking solution was removed and the plate was washed with PBST buffer (pH 7.4 PBS comprising 0.05% Tween-20) for 5 times; 25 μl of 10 μg/ml IL-5Rα (in 1% BSA) labeled by a biotin labeling kit (Tojin Chemical, LK03) was added, and then 25 μl of gradient-diluted antibody was added (the antibody competed with IL-5Rα for the binding with IL-5) and incubated at 37° C. for 1 hour. After the incubation, the reaction solution in the microtiter plate was removed, the plate was washed for 5 times with PBST, added with 50 μl/well of Streptavidin-Peroxidase Polymer (Sigma, 52438-250UG) diluted with sample dilution solution at 1:600 and incubated for 1 hour at 37° C.

[5] = biological target: T1, human IL-5 with his-tag (rhIL-5-his); test: cell-based or functional assay
[6] = biological target: T1, human IL-5 with his-tag (rhIL-5-his); test: cell-based or functional assay; remark: listed apart in the source
[7] = biological target: T1, human IL-5 with his-tag (rhIL-5-his); test: Biacore T200, antibody captured on protein A chip, antigen in flow, 1:1 Langmuir; remark: listed apart in the source
Experimental: The affinity of the humanized IL-5 antibody to be tested with human IL-5 was measured by Biacore T200 (GE) instrument.
as §2, with “(prepared” for “(recombinant human and cyno IL-5 prepared”, “14.” for “13.”

[8] = biological target: T1, human IL-5 with his-tag (rhIL-5-his); test: FACS blocking: biotin-IL-5 (100 ng/ml) binding to IL-5Rα/β-CHOS cells, antibody diluted
Experimental: Particular method was as follows: CD-CHO comprising […] and […] zeozin was used to culture CHO-S-IL-5Rα and β. During cell culture, the concentration should not exceed 3×10⁶ cells/ml. IL-5Rα/β-CHOS cells in good condition were centrifuged (at 1000 rpm, 5 min), and washed once with 10% FBS in PBS, and the cells were counted, the cell concentration was adjusted to 4×10⁶ cells/ml, and 25 μl was taken out and added into a round-bottom 96-well plate. The antibody to be tested was diluted with PBS solution comprising 10% FBS. The initial concentration was 200 μg/ml, and diluted at 1:10 for 8 gradient dilutions. 25 μl of 100 ng/ml IL-5 labeled by a biotin labeling kit (Tojin Chemical, LK03) was added, and fully mixed with 50 μl of diluted antibody at each concentration, and added into 96-well plate that has been added with cells, and incubated at 4° C. for 1 hour. After the incubation, the sample was centrifuged at 4° C. (400 g, 5 min), and the supernatant was removed, the plated was washed with 200 μl of pre-cooled PBS by centrifugation, repeated for twice; PE-Avidin secondary antibody diluted at 1:1333 was added and incubated in the dark at 4° C. for 40 min, centrifuged at 4° C.

[9] = biological target: IL2 (R&D, 202-IL-010/CF) (UniProt P60568 21-153); test: Fortebio biolayer interferometry: antibody captured on Protein A biosensor, 40 nM cytokine injected; signal relative to IL-5 = 100%
IL2 (R&D, 202-IL-010/CF), sequence (P60568 21-153 limits assumed): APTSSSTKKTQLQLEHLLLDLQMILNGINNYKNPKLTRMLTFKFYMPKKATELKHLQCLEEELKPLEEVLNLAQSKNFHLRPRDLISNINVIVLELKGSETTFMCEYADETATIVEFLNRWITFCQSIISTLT
Experimental: (§3) IL-5 was one of Th2 cytokines.
(§4) In particular: Protein A Biosensor (PALL Fortebio, 18-5010) was used to capture the antibody, the capture signal was recorded, and then 40 nM each cytokine was injected, the new binding signal was recorded. Finally, the binding signal with IL-5 was defined as 100%.

[10] = biological target: T3, IL4 (R&D, 204-IL-050/CF); test: as above
Experimental: as §3, §4

[11] = biological target: T4, IFNgamma; test: as above
Experimental: as §3, §4

[12] = biological target: IL6 (R&D, 7270-IL-025/CF) (UniProt P05231 30-212, limits assumed); test: as above
Experimental: as §3, §4

[13] = biological target: IL9 (R&D, 209-IL-010/CF) (UniProt P15248 19-144); test: as above
IL9 (R&D, 209-IL-010/CF), sequence (P15248 19-144 limits assumed): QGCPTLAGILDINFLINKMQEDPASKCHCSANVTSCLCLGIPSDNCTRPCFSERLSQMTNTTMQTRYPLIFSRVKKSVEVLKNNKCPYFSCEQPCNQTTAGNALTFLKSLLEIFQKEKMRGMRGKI
Experimental: as §3, §4

[14] = biological target: IL10 (R&D, 217-IL-025/CF) (UniProt P22301 19-178); test: as above
IL10 (R&D, 217-IL-025/CF), sequence (P22301 19-178 limits assumed): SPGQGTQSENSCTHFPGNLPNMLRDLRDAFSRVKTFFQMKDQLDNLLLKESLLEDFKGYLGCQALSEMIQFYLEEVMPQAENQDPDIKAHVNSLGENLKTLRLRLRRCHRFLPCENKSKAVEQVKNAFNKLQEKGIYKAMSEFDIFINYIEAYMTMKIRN
Experimental: as §3, §4

[15] = biological target: IL13 (R&D, 213-ILB-025/CF) (UniProt P35225 35-146); test: as above
IL13 (R&D, 213-ILB-025/CF), sequence (P35225 35-146 limits assumed): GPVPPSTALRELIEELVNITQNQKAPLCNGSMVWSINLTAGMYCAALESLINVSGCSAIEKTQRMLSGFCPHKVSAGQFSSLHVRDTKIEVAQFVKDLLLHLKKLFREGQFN
Experimental: as §3, §4

[16] = biological target: T5, IL25 (R&D, 8134-IL-025/CF); test: as above
Experimental: as §3, §4

[17] = biological target: T6, IL31 (R&D, 2824-IL-010/CF); test: as above
Experimental: as §3, §4

[18] = biological target: T7, IL3 (203-IL-050/CF); test: as above
Experimental: as §3, §4

[19] = biological target: GMCSF (R&D, 215-GM-010/CF) (UniProt P04141 18-144); test: as above
GMCSF (R&D, 215-GM-010/CF), sequence (P04141 18-144 limits assumed): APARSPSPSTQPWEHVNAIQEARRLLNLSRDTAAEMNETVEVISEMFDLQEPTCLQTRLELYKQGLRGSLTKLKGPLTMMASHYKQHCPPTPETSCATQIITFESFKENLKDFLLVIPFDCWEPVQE
Experimental: as §3, §4

Kd [1] | Kd [2] | Kd [3] | IC50 [4] | IC50 of inhibition of IL-5 induced TF1 cell proliferation [5] | IC50 of blocking IL-5 induced eosinophil adhesion [6] | Kd [7] | IC50 [8] | binding result [9] | binding result [10] | binding result [11] | binding result [12] | binding result [13] | binding result [14] | binding result [15] | binding result [16] | binding result [17] | binding result [18] | binding result [19] | Binder
0.0727 nM | 0.0727 nM | 0.205 nM | 0.42 µg/mL |  |  |  |  |  |  |  |  |  |  |  |  |  |  |  | mAb1705 (antibody, V domains shown, Murine hybridoma antibody) VH: EVQLVESGGGLVQPGRSLKLSCTASGFTFSHYYMAWVRQAPKKGLEWVTSISYEGDITYYGDSVKGRFTISRDNAKSTLYLQMNSLRSEDTATYYCASQTLRESFDYWGQGVMVTVSS VL: DIQMTQSPSSMSVSLGDRVTITCRASQDIANYLSWYQQKIARSPKLVIYGTSNLEVGVPSRFSGSRSGSDYSLTINTLESEDTGIYFCLQDKEFPRTFGGGTRLELK
 |  |  |  | 0.25 nM | 0.0043 µg/mL | 0.0545 nM | 0.0247 µg/mL | no binding (tested: 40 nM) | no binding (tested: 40 nM) | no binding (tested: 40 nM) | no binding (tested: 40 nM) | no binding (tested: 40 nM) | no binding (tested: 40 nM) | no binding (tested: 40 nM) | no binding (tested: 40 nM) | no binding (tested: 40 nM) | no binding (tested: 40 nM) | no binding (tested: 40 nM) | h1706-009 (antibody, human IgG1, kappa, V domains shown) VH: EVQLVESGGGLVQPGGSLRLSCAASGFTFSHYYMAWVRQAPGKGLEWVSSINYEGNSAYYGDSVKGRFTISRDNSKNTLYLQMNSLRAEDTAVYYCATETLRESLDYWGQGTMVTVSS VL: DIQMTQSPSSVSASVGDRVTITCRASQDIGNYLSWYQQKPGKSPKLMIYSASNLEVGVPSRFSGSGSGTDYTLTISSLQPEDFATYFCLQHKQFPRTFGGGTKVEIKR
 |  |  |  | 0.2 nM | 0.00485 µg/mL | 0.0342 nM | 0.0145 µg/mL | no binding (tested: 40 nM) | no binding (tested: 40 nM) | no binding (tested: 40 nM) | no binding (tested: 40 nM) | no binding (tested: 40 nM) | no binding (tested: 40 nM) | no binding (tested: 40 nM) | no binding (tested: 40 nM) | no binding (tested: 40 nM) | no binding (tested: 40 nM) | no binding (tested: 40 nM) | h1705-008 (antibody, human IgG1, kappa, V domains shown, IgG1 with M252Y/S254T/T256E, kappa) VH: EVQLVESGGGLVQPGGSLRLSCAASGFTFSHYYMAWVRQAPGKGLEWVTSISYEGDITYYGDSVKGRFTISRDNSKNTLYLQMNSLRAEDTATYYCASQTLRESFDYWGQGTLVTVSS VL: DIQMTQSPSSVSASVGDRVTITCRASQDIANYLSWYQQKPGKSPKLLIYGTSNLEVGVPSRFSGSRSGTDFTLTISSLQPEDFATYYCLQDKEFPRTFGGGTKVEIKR

— patent publication US20220144937A1 (JIANGSU HENGRUI MEDICINE, published 2022)
